Results taken from the supplement of paper PMC6755084.

B1: minF1; the commonest letter at each place (parent)
chain: GAGACCGCAACTGAAAAGTTGTTATCAGAAATGGATGGGTTGAATTTCTGCACGTAGAAGCAAAAGGC

Variants of: B1
Assay: fraction ligated after 30 min (ligated reads / total reads); higher = more ligase activity
Conditions: with F1*subA RNA substrate (template-directed ligation), 42 °C
In short: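 Minimized ligase ribozyme variants came from oligo-pool templates that were PCR-amplified, T7-transcribed and gel-purified. Their ligated and unligated RNAs were separated on gels before barcoded reverse transcription and MiSeq sequencing, with core bases kept only at quality ≥30. The fraction ligated for each variant is its ligated reads as a proportion of all its reads.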

Row | Variant | fraction ligated
1 | GAGACCGCAACTGAAAAGTTGTTATCAGAAATCGATAGGTTGAATTTCTGCACGTAGAAGCAAAAGGC | 0.00724
2 | GAGACCGCAACTGAAAAGTTGTTATCAGAAATCGATCGGTTGAATTTCTGCACGTAGAAGCAAAAGGC | 0.00381
3 | GAGACCGCAACTGAAAAGTTGTTATCAGAAATCGATTGGTTGAATTTCTGCACGTAGAAGCAAAAGGC | 0.01
4 | GAGACCGCAACTGAAAAGTTGTTATCAGAAATCGCTGGGTTGAATTTCTGCACGTAGAAGCAAAAGGC | 0.0133
5 | GAGACCGCAACTGAAAAGTTGTTATCAGAAATCGTTGGGTTGAATTTCTGCACGTAGAAGCAAAAGGC | 0.0199
6 | GAGACCGCAACTGAAAAGTTGTTATCAGAAATCGGTGGGTTGAATTTCTGCACGTAGAAGCAAAAGGC | 0.0844
7 | GAGACCGCAACTGAAAAGTTGTTATCAGAAATCGATGGGTTAAATTTCTGCACGTAGAAGCAAAAGGC | 0.132
8 | GAGACCGCAACTGAAAAGTTGTTATCAGAAATCGATGGGTTTAATTTCTGCACGTAGAAGCAAAAGGC | 0.0409
9 | GAGACCGCAACTGAAAAGTTGTTATCAGAAATCGATGGGTTCAATTTCTGCACGTAGAAGCAAAAGGC | 0.011
10 | GAGACCGCAACTGAAAAGTTGTTATCAGAAATTGATGGGTTGTATTTCTGCACGTAGAAGCAAAAGGC | 0.0265
11 | GAGACCGCAACTGAAAAGTTGTTATCAGAAATTGATGGGTTGCATTTCTGCACGTAGAAGCAAAAGGC | 0.0254
12 | GAGACCGCAACTGAAAAGTTGTTATCAGAAATTGATGGGTTGGATTTCTGCACGTAGAAGCAAAAGGC | 0.0169
13 | GAGACCGCAACTGAAAAGTTGTTATCAGAAATCGATGGGTTGGATTTCTGCACGTAGAAGCAAAAGGC | 0.0324
14 | GAGACCGCAACTGAAAAGTTGTTATCAGAAATCGATGGGTTGTATTTCTGCACGTAGAAGCAAAAGGC | 0.0544
15 | GAGACCGCAACTGAAAAGTTGTTATCAGAAATCGATGGGTTGCATTTCTGCACGTAGAAGCAAAAGGC | 0.0394
16 | GAGACCGCAACTGAAAAGTTGTTATCAGAAATATATGGGTTGAATTTCTGCACGTAGAAGCAAAAGGC | 0.00656
17 | GAGACCGCAACTGAAAAGTTGTTATCAGAAATAGACGGGTTGAATTTCTGCACGTAGAAGCAAAAGGC | 0.0229
18 | GAGACCGCAACTGAAAAGTTGTTATCAGAAATAGAAGGGTTGAATTTCTGCACGTAGAAGCAAAAGGC | 0.0257
19 | GAGACCGCAACTGAAAAGTTGTTATCAGAAATAGAGGGGTTGAATTTCTGCACGTAGAAGCAAAAGGC | 0.0572
20 | GAGACCGCAACTGAAAAGTTGTTATCAGAAATAGATGGGTTAAATTTCTGCACGTAGAAGCAAAAGGC | 0.228

Row | Variant | fraction ligated
21 | GAGACCGCAACTGAAAAGTTGTTATCAGAAATAGATGGGTTCAATTTCTGCACGTAGAAGCAAAAGGC | 0.0145
22 | GAGACCGCAACTGAAAAGTTGTTATCAGAAATAGATGGGTTTAATTTCTGCACGTAGAAGCAAAAGGC | 0.102
23 | GAGACCGCAACTGAAAAGTTGTTATCAGAAATAGATAGGTTGAATTTCTGCACGTAGAAGCAAAAGGC | 0.00769
24 | GAGACCGCAACTGAAAAGTTGTTATCAGAAATAGATTGGTTGAATTTCTGCACGTAGAAGCAAAAGGC | 0.0175
25 | GAGACCGCAACTGAAAAGTTGTTATCAGAAATAGATCGGTTGAATTTCTGCACGTAGAAGCAAAAGGC | 0.00669
26 | GAGACCGCAACTGAAAAGTTGTTATCAGAAATCCATGGGTTGAATTTCTGCACGTAGAAGCAAAAGGC | 0.00483
27 | GAGACCGCAACTGAAAAGTTGTTATCAGAAATCTATGGGTTGAATTTCTGCACGTAGAAGCAAAAGGC | 0.00568
28 | GAGACCGCAACTGAAAAGTTGTTATCAGAAATCAATGGGTTGAATTTCTGCACGTAGAAGCAAAAGGC | 0.18
29 | GAGACCGCAACTGAAAAGTTGTTATCAGAAATCGATGGGTTGAATTTCTGCACGTAGAAGCAAAAGGC | 0.804
30 | GAGACCGCAACTGAAAAGTTGTTATCAGAAATTGATGGGTTGAATTTCTGCACGTAGAAGCAAAAGGC | 0.605
31 | GAGACCGCAACTGAAAAGTTGTTATCAGAAATCGATGGGTTGACTTTCTGCACGTAGAAGCAAAAGGC | 0.383
32 | GAGACCGCAACTGAAAAGTTGTTATCAGAAATCGATGGGTTGATTTTCTGCACGTAGAAGCAAAAGGC | 0.598
33 | GAGACCGCAACTGAAAAGTTGTTATCAGAAATCGATGGGTTGAGTTTCTGCACGTAGAAGCAAAAGGC | 0.497
34 | GAGACCGCAACTGAAAAGTTGTTATCAGAAATTGATGGGTTGACTTTCTGCACGTAGAAGCAAAAGGC | 0.149
35 | GAGACCGCAACTGAAAAGTTGTTATCAGAAATTGGTGGGTTGAATTTCTGCACGTAGAAGCAAAAGGC | 0.0792
36 | GAGACCGCAACTGAAAAGTTGTTATCAGAAATTGTTGGGTTGAATTTCTGCACGTAGAAGCAAAAGGC | 0.0191
37 | GAGACCGCAACTGAAAAGTTGTTATCAGAAATTGCTGGGTTGAATTTCTGCACGTAGAAGCAAAAGGC | 0.0181
38 | GAGACCGCAACTGAAAAGTTGTTATCAGAAATCGAGGGGTTGAATTTCTGCACGTAGAAGCAAAAGGC | 0.0305
39 | GAGACCGCAACTGAAAAGTTGTTATCAGAAATCGAAGGGTTGAATTTCTGCACGTAGAAGCAAAAGGC | 0.0174
40 | GAGACCGCAACTGAAAAGTTGTTATCAGAAATCGACGGGTTGAATTTCTGCACGTAGAAGCAAAAGGC | 0.00989
